From patent US20240109962A1 (SPARX BIOSCIENCE, published 2024)

B1: Antibody 11B12 (antibody, V domains shown)
VH: DVQLQESGPGLVKPSQSLSLTCSVTGYSITSGYYWNWIRQFPGNKLEWMGYISYDGNNNYNPSLKNRISITRDTSKNQFFLKLNSVTTEDTATYYCAREESTMITTAWFAYWGQGTLVTVSA
VL: DIQMTQSPASLSVSVGETVTITCRASENIYSNLAWYQQKQGKSPQLLVYGATNLADGVPSRFSGSGSGTQYSLKINSLQSEDFGSYFCQHFWDTPYTFGGGTKLEIK
notes: Mouse hybridoma mAb purified from ascites
B2: Antibody h#12a (antibody, V domains shown)
VH: EVQLVESGGGLVQPGGSLRLSCAASGFTFSNFGMHWVRQAPGKGLEWVAYISSGSGTIYYSDTVRGRFTISRDDSKNTLYLQMNSLRAEDTAVYYCARSDYDGDWFFDVWGQGTLVTVSS
VL: DIQMTQSPSSLSASVGDRVTITCKASQDVTTAVAWYQQKPGKAPKLLIYSASFRYTGVPSRFSGSGSGTDFTLTISSLQPEDFATYYCQQHFTTPLTFGQGTKVEIK
notes: Humanized variant of 9B6
B3: Antibody 9B6 (antibody, V domains shown)
VH: DVQLVESGGGLVQPGWSRILSCAASGFTFSNFGMHWVRQAPEKGLEWVAYISSGSGTIYYSDTVRGRFTISRDNPKNTLFLLMTSLRSEDTAMYYCTRSDYDGDWFFDVWGAGTTVTVSS
VL: DIVMTQSHRFLSTSVGDRVTITCKASQDVTTAVAWCQQKPGQSPKLLIYSASFRYTGVPDRFTGSGSGTDFTFTINNVQAEDLALYYCQQHFTTPLTFGAGTKLELK
notes: as for B1
B4: Antibody 13D12 (antibody, V domains shown)
VH: EIQLQQSGPELVKPGASVKVSCKASGYAFTSHNIYWVKQSHGKSLEWIGYIDPYNGGSTYNQKFKDKATLTVDKSSSTAYMHLKSLTSEDSAVYYCARGDYRDFWGQGTTLTVSS
VL: DIQMTQTTSSLSASLGDRVTIRCSASQAINNYLNWYQQKPDGTVKLLIYYTSSLHSGVPSRFSGSGSGADYSLTISNLEPEDIATYYCQQYSHLPWTFGGGTTLEIK
notes: as for B1
B5: Antibody 9H6 (antibody, V domains shown)
VH: EVQLQQSGAELVRPGALVKLSCKASGFNVKDYYMHWVKQRPEQGLEWIGWIDPKNGNGIYDPKFQGKASITADTSSNTAYLQLSSLTSEDTSVYYCARGDYFGSSYLFAYWGQGTLVTVSA
VL: DIVMTQSHKFMSTSVGDRVSITCKASQDVSTAVAWYQQKPGQSPKLLIYSASYRYTGVPDRFTGSGSGTDFTFTISSVQAEDLAVYYCQQHYSTPWTFGGGAKLEIK
notes: as for B1

What was measured:
[1] = molecular target: T1, human LILRB2 expressed on cells (293T-LILRB2, CHO-K1-LILRB2) (human, UniProt Q8N423 22-597); assay: flow cytometry, blockade of PE-HLA-A2 tetramer binding to CHO-K1-huLILRB2 cells
T1 construct: whole, on cells; the cell line is named under assay; also called HEK293T-LILRB2
Method: Pre-experimentation was performed to determine parameters for this assay. PE-labelled HLA-A2 tetramer at the concentration of 0.25 μg/ml and an anti-LILRB2 antibody at the concentration of 2.5 μg/ml were incubated with CHO-K1-huLILRB2 cells for 10 minutes. The cells were washed twice and then analysed by flow cytometry. […] FIG. 3A.
Clones 11B12, 9B6, and 9H6 were selected for dose-dependent blockade assays against HLA-A2 from binding to CHO-K1-huLILRB2 cells. A mouse IgG (mIgG) antibody was used as a negative control.

[2] = molecular target: T2, His-tagged human LILRB2 polypeptide (human, UniProt Q8N423 22-460); assay: SPR, antibody on CM5 chip, His-LILRB2 analyte, 1:1 model
T2 construct: SPR analyte; also called His-tagged human LILBR2 polypeptide; not shown: His tag
Method: Surface plasmon resonance (SPR) was used to examine binding activities of exemplary anti-LILBR2 antibodies disclosed herein. Briefly, the anti-LILBR2 antibody was diluted in a coating buffer to a concentration of 30 μg/ml, loaded onto CM5 chips at 10 μl/min to allow coating of the antibody on the surface of the CM5 chip. […] Binding affinity was measured based on the 1:1 binding model.

LILRB3-His = molecular target: T3, LILRB3-His; assay: ELISA on recombinant His-tagged protein, OD450
T3 construct: also called His-tagged LILRB3; recombinant LILRB3 protein

LILRB2-Fc fusion protein = molecular target: T4, LILRB2-Fc fusion protein (human, UniProt Q8N423 22-460, limits assumed); assay: ELISA, blockade of LILRB2-Fc binding to coated His-ANGPTL2
T4 construct: not shown: Fc
Method: His-tagged ANGPTL2 protein (1 μg/ml) was placed in a 96-well plate ([…]) and incubated at 4° C. overnight. Afterwards, LILRB2-Fc fusion protein at 0.25 mg/ml was incubated with the anti-LILRB2 antibody at various concentrations at room temperature for one hour and then added into the His-ANGPTL2 coated plate. The plate was placed in a shaker at 500 rpm for 2 hours at room temperature. HRP-labelled goat anti-human Fc antibody (1:10,000 dilution) was added to the plate (100 μl/well). After incubation at room temperature for 1 hour, TMB was added for color development.
Clones 11B12, 9B6, 9H6, and 14F1 were selected for dose-dependent blockade assays. A mouse IgG (mIgG) antibody was used as a negative control. […] The IC₅₀ values are around 1 nM. […] (ix) Exemplary Anti-LILBR2 Antibodies Enhanced TNFα Expression and Suppressed IL-10 Expression in LPS-Stimulated PBMCs

[3] = molecular target: T5, human LILRB3 expressed on 293T cells (human, UniProt O75022 24-631); assay: cell ELISA on fixed 293T transfectants, OD490
T5 construct: whole, on cells
Method: (§1) The cells were then immobilized with glutaraldehyde in the presence of 5% defatted milk at room temperature for 2 hours. An anti-LILRB2 antibody (2 μg/ml) was added to each well and incubated at room temperature for 2 hours. An HRP-labelled goat anti-mouse secondary antibody was then added into each well and incubated at room temperature for one hour. An HRP substrate, o-phenylenediamine dihydrochloride (OPD) was then added to each well. The plate was incubated at room temperature for 15 min to allow color development and OD₄₉₀ values were determined.

[4] = molecular target: T6, human LILRB1 expressed on 293T cells (human, UniProt Q8NHL6 24-650); assay: cell ELISA on fixed 293T transfectants, OD490
T6 construct: whole, on cells
Method: as §1

[5] = molecular target: LILRB2 antigen of the ELISA of Table 5 (format not specified) (UniProt Q8N423 22-460, limits assumed); assay: ELISA, antibody titration
[6] = molecular target: T1, human LILRB2 expressed on cells …; assay: flow cytometry, blockade of PE-HLA-G tetramer binding to 293T-huLILRB2 cells
Method: Pre-experimentation was performed to determine parameters for this assay. […] The cells were washed twice and then analysed by flow cytometry. […] FIG. 3C.
A mouse IgG (mIgG) antibody was used as a negative control.

[7] = molecular target: T1, human LILRB2 expressed on cells …; assay: flow cytometry, blockade of His-tagged HLA-G tetramer binding to 293T-LILRB2 cells; fit table under the graph
Method: Serial diluted humanized LILRB2 antibodies were then added to the mixture and incubated at room temperature for another 45 minutes. The binding of HLA-G/LILRB2 was detected afterwards using a secondary PE-labeled anti-His tag antibody via flow cytometry.

[8] = molecular target: T1, human LILRB2 expressed on cells …; assay: flow cytometry on 293T-LILRB2 cells, serial dilution, APC anti-human IgG; fit table under the graph
Excerpt: The cells were washed and then subject to flow cytometry to measure levels of fluorescent signals.

[9] = molecular target: T5, human LILRB3 expressed on 293T cells; assay: cell ELISA, 293T-LILRB3 cells, antibody 2 ug/ml
Method: as §1

[10] = molecular target: T5, human LILRB3 expressed on 293T cells; assay: flow cytometry on 293T transfectants, MFI
In short: (§2)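 Cells fixed with glutaraldehyde in 5% defatted milk, RT 2 h, then stained with anti-LILRB2 antibody (5 μg/ml, RT 1 h) and Alexa Fluor goat anti-mouse secondary (1:2,000, RT 30′). After two PBS washes, mean fluorescence intensity was measured.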

[11] = molecular target: T6, human LILRB1 expressed on 293T cells; assay: flow cytometry on 293T transfectants, MFI
In short: as §2

LILRB1-His = molecular target: T7, LILRB1-His; assay: ELISA on recombinant His-tagged protein, OD450
T7 construct: also called His-tagged LILRB1; recombinant LILRB1 protein

[12] = molecular target: T6, human LILRB1 expressed on 293T cells; assay: cell ELISA, 293T-LILRB1 cells, antibody 2 ug/ml
Method: as §1

[13] = molecular target: T1, human LILRB2 expressed on cells …; assay: cell ELISA, 293T-LILRB2 cells, antibody 2 ug/ml
Method: as §1

[14] = molecular target: T6, human LILRB1 expressed on 293T cells; assay: cell ELISA on fixed 293T transfectants, antibody 2 µg/ml, OD490
Method: as §1

Chain of LILRB2 antigen of the ELISA of Table 5 (format not specified) (Q8N423 22-460 limits assumed): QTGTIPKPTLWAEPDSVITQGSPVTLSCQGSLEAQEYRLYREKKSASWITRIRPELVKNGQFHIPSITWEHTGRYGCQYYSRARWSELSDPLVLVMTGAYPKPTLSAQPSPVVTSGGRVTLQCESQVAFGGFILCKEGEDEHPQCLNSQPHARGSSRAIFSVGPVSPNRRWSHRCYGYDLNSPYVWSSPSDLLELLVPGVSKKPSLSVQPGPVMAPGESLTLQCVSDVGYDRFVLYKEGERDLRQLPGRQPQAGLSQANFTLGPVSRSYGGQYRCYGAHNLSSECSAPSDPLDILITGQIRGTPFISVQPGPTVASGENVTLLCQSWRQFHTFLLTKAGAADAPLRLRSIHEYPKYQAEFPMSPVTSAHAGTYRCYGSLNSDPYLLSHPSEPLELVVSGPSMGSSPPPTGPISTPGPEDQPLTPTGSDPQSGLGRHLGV
T4 sequence (Q8N423 22-460 limits assumed): as above
T2 sequence (Q8N423 22-460 limits assumed): as above
T1 sequence (Q8N423 22-597): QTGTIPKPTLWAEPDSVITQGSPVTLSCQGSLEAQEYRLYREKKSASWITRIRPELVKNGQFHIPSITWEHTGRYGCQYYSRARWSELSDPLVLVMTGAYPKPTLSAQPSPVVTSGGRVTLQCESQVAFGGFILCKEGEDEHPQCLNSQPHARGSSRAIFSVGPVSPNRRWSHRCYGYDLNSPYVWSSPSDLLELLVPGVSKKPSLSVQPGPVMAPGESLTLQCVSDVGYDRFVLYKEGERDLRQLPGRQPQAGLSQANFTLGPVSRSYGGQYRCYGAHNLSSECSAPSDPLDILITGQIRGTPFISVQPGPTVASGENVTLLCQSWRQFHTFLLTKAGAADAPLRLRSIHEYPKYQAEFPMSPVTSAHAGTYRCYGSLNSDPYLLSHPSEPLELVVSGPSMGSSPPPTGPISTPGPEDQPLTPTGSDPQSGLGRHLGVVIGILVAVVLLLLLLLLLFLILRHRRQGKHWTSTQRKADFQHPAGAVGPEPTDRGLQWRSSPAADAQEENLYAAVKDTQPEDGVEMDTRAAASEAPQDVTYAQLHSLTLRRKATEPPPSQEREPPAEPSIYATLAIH
T6 sequence (Q8NHL6 24-650): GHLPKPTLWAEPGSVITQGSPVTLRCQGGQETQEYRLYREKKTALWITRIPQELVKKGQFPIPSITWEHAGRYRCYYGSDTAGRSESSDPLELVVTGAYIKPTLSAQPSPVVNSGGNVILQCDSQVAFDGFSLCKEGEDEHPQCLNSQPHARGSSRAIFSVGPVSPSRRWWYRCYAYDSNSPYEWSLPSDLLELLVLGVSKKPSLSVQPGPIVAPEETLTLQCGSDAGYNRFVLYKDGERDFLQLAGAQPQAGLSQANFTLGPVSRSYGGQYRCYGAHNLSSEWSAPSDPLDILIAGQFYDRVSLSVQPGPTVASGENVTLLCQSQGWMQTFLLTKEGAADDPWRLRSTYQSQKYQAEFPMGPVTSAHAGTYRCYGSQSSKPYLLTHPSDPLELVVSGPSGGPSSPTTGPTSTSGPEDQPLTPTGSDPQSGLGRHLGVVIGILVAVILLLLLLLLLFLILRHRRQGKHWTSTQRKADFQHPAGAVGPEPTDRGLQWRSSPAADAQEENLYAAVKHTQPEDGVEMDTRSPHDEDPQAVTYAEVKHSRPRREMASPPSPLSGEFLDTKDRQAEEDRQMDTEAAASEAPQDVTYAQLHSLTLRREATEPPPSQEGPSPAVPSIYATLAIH
T7 sequence (chain, as listed by the source limits assumed): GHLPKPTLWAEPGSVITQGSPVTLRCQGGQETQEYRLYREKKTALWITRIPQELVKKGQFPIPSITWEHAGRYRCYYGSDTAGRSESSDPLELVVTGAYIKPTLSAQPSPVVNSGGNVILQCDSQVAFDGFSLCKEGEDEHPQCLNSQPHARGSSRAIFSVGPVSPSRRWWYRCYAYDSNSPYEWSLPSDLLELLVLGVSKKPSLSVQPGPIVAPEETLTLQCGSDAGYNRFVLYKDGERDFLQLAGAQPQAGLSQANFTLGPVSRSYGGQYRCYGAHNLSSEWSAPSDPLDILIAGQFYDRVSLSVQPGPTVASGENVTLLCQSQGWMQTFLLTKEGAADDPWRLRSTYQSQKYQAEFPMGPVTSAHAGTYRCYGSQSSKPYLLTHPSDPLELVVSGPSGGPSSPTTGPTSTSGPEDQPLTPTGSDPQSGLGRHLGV

| Binder | IC50 [1] | Kd [2] | koff [2] | kon [2] | binding result (LILRB3-His) | IC50 (LILRB2-Fc fusion protein) | binding result [3] | binding result [4] | Kd [5] | IC50 [6] | IC50 [7] | Kd [8] | OD490 [9] | binding result [10] | binding result [11] | binding result (LILRB1-His) | OD490 [12] | OD490 [13] | binding result [14] |
| --- | --- | --- | --- | --- | --- | --- | --- | --- | --- | --- | --- | --- | --- | --- | --- | --- | --- | --- | --- |
| B1 | 0.475 nM | 0.353 nM | 0.00032 s⁻¹ | 905000 M⁻¹ s⁻¹ | no binding | 1 nM | no binding (tested: 2 µg/ml) | no binding (tested: 2 µg/ml) | 3.2 nM | 0.857 nM |  |  |  |  |  |  |  |  |  |
| B2 |  |  |  |  |  |  |  |  |  |  | 0.318 nM | 0.242 nM |  |  |  |  |  |  |  |
| B3 | 0.34 nM | 1.07 nM | 0.000864 s⁻¹ | 809000 M⁻¹ s⁻¹ | no binding | 1.01 nM |  |  | 0.943 nM | 0.618 nM |  |  | 0.126 OD490 | no binding (tested: 5 µg/ml) | no binding (tested: 5 µg/ml) | no binding | 0.121 OD490 | 1.43 OD490 |  |
| B4 |  |  |  |  |  |  | no binding (tested: 2 µg/ml) |  | 2.48 nM |  |  |  |  |  |  |  |  |  | binds |
| B5 | 4.97 nM | 0.0257 nM | 4.72e-06 s⁻¹ | 183000 M⁻¹ s⁻¹ | no binding | 0.945 nM |  |  | 1.04 nM | 3.12 nM |  |  | 0.139 OD490 | no binding (tested: 5 µg/ml) | no binding (tested: 5 µg/ml) | no binding | 0.177 OD490 | 1.86 OD490 |  |
